Patent publication US20240041922A1 (MONASH UNIVERSITY, published 2024)
Blank lines part the entries; values can stand above or below the binder they belong to.

Columns and labels:
[1] = biological target: CCR5 (as used in the NAMPTcif competition assay of FIG. 9b); test: competition assay: inhibition of NAMPT binding to CCR5 by NAMPTcif (FIG. 9b); format not described
[2] = biological target: T1, human recombinant NAMPT(1) (recombinant human visfatin, PeproTech) (human, UniProt P43490 27-491, limits assumed); test: ELISA: plate coated with 20 nM GST-hrCCR5, 0-800 nM hrNAMPT(1), biotinylated anti-NAMPT detection, BSA signal deducted, non-linear fit
T1 construct: Bought protein; also called hrNAMPT(1); hrNAMPT source 1
T1 sequence (P43490 27-491 limits assumed): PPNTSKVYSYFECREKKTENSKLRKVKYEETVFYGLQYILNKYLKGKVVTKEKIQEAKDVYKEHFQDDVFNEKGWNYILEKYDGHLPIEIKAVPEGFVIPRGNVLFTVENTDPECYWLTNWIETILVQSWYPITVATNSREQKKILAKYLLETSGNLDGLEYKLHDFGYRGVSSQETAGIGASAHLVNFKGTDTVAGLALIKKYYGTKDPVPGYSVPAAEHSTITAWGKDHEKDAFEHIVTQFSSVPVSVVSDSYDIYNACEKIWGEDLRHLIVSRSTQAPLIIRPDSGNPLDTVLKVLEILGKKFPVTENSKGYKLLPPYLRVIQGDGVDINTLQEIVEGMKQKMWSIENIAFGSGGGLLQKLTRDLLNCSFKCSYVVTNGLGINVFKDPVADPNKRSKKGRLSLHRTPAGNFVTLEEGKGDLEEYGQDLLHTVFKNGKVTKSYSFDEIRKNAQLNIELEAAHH
Description: Wells were blocked for 1 h at room temperature with 1% BSA in PBS containing 0.05% Tween-20 (PBS-T).

[3] = biological target: T2, recombinant mouse CCR5 (MyBioSource) (mouse, UniProt P51682 1-354, limits assumed); test: competitive ELISA: plate coated with 20 nM mrCCR5, 0-400 nM mrCCL4 with 100 nM hrNAMPT(1) as competitor, bound hrNAMPT(1) detected
T2 construct: Coated on the ELISA plate at 20 nM; also called mrCCR5; mouse recombinant CCR5
T2 sequence (P51682 whole entry): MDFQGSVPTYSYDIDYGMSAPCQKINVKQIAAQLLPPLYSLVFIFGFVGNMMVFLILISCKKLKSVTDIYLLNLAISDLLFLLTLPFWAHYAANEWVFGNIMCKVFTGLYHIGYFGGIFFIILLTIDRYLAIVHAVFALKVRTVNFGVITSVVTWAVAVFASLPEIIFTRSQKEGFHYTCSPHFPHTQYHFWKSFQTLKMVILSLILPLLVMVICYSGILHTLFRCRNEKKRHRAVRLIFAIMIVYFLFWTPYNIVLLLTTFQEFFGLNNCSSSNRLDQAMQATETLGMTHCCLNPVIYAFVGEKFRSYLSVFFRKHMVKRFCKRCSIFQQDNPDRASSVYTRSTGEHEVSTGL
Description: Then, wells were blocked for 1 h at room temperature with 1% BSA in PBS containing 0.05% Tween-20 (PBS-T).

IC50 [1]: 21.5 nM
B1: NAMPT402-491 (recombinant C-terminal 'cytokine finger' fragment of NAMPT) (ligand)
chain: MSYVVTNGLGVNVFKDPVADPNKRSKKGRLSLHRTPAGNFVTLEEGKGDLEEYGHDLLHTVFKNGKVTKSYSFDEVRKNAQLNIEQDVAPHHHHHHH
notes: Made in E. coli BL21(DE3) from pET22b(+) and purified on HisTap; also called NAMPTcif; cif

Kd [2]: 172 nM
B2: GST-fused recombinant human CCR5 (Abcam) (receptor)
chain: not shown
notes: Coated on the ELISA plate at 20 nM; GST is put first here only by convention; also called hrCCR5; human recombinant CCR5; not shown: GST fusion partner

IC50 [3]: 34.4 nM
B3: recombinant murine CCL4/MIP-1beta (PeproTech) (ligand, mouse, UniProt P14097 24-92, looked up)
chain: APMGSDPPTSCCFSYTSRQLHRSFVMDYYETSSLCSKPAVVFLTKRGRQICANPSEPWVTEYMSDLELN
notes: also called mrCCL4; mouse recombinant CCL4
